Assay results reported in PMC4484809.

What was measured:
[1] = target: Xpo1 (full-length, 1–1071) (S. cerevisiae) (UniProt P30822)
[2] = target: Xpo1 (full-length, 1–1071) (S. cerevisiae) (UniProt P30822); remark: listed apart in the source
[3] = target: Xpo1 (full-length, 1–1071) (S. cerevisiae) (UniProt P30822); remark: listed apart in the source

| Substance | RNA duplex unwinding (helicase) by Ded1 I13A (50 nM) with Xpo1 (550 nM) and Ran[GTP]Q71L (650 nM); fold inhibition of k unwind [1] [fold] | Michaelis-Menten analysis of Ded1 ATPase (500 nM) against whole cell yeast RNA, with ~10 fold molar excess of Xpo1 and Ran[GTP]Q71L; fold change of the apparent KM for RNA [2] [fold] | RNA duplex unwinding (helicase) by Ded1 (50 nM) with Xpo1 (550 nM) and Ran[GTP]Q71L (650 nM); fold inhibition of k unwind [1] [fold] | RNA-stimulated ATPase activity of Ded1 (500 nM, 320 μg/mL whole-cell yeast RNA) with Xpo1 0.55–11 μM and Ran[GTP]Q71L 0.65–13 μM added together; fold reduction [3] [fold] |
| --- | --- | --- | --- | --- |
| Ded1_(I13A) (full-length Ded1, I13A) (from UniProt P06634 1-604) (natural protein) | < 2 | – | – | – |
| Ded1 (full-length, 1–604) (from UniProt P06634 1-604) (natural protein) | – | 50 | 5 | 2 |
